The source of these data is paper PMC4066811.

The target of assay [1] is GST-syntaxin 3B T14E (phosphomimetic mutant, without the transmembrane domain) (mouse). Nature of the assay: pull-down.
Assay [2] deals with GST-syntaxin 3B (cytoplasmic domain without the transmembrane domain, residues 2-264), wild type (mouse). Nature of the assay: pull-down.

“His6-SNAP-25b (recombinant) (from UniProt P60879-1 1-206) (natural protein)”: the amount of bound SNAP-25, normalized to wild type amounted to 180% in assay [1] and 100% in assay [2].
